# Assay results as given in US10563220B2, “Compositions and methods for efficient targeting of transgenes” (priority 2015, dated 2020).
# B1: APG6: Arabidopsis thaliana albino and pale green (APG6) chloroplast transit peptide, SEQ ID NO:1, tested linked to DMO or PPO (protein, listed as Arabidopsis thalinana)
# chain: MATATTTATAAFSGVVSVGTETRRIYSFSHLQPSAAFPAKPSSFKSLKLKQSARLTRRLDHRPFVVRC
# B2: WH_PPO: protoporphyrinogen oxidase from Amaranthus tuberculatus (waterhemp), SEQ ID NO:60 (protein, listed as Amaranthus tuberculatus)
# chain: MGNISEREEPTSAKRVAVVGAGVSGLAAAYKLKSHGLSVTLFEADSRAGGKLKTVKKDGFIWDEGANTMTESEAEVSSLIDDLGLREKQQLPISQNKRYIARDGLPVLLPSNPAALLTSNILSAKSKLQIMLEPFLWRKHNATELSDEHVQESVGEFFERHFGKEFVDYVIDPFVAGTCGGDPQSLSMHHTFPEVWNIEKRFGSVFAGLIQSTLLSKKEKGGENASIKKPRVRGSFSFQGGMQTLVDTMCKQLGEDELKLQCEVLSLSYNQKGIPSLGNWSVSSMSNNTSEDQSYDAVVVTAPIRNVKEMKIMKFGNPFSLDFIPEVTYVPLSVMITAFKKDKVKRPLEGFGVLIPSKEQHNGLKTLGTLFSSMMFPDRAPSDMCLFTTFVGGSRNRKLANASTDELKQIVSSDLQQLLGTEDEPSFVNHLFWSNAFPLYGHNYDSVLRAIDKMEKDLPGFFYAGNHKGGLSVGKAMASGCKAAELVISYLDSHIYVKMDEKTA
# Key:
# [1] = system: transgenic Brassica napus plants; experiment: Dicamba tolerance in R0 Brassica napus, greenhouse; conditions: R0 plants with one copy with vector backbone or two copies, tolerant = injury 20% or less, 21 days
# Experimental: Brassica napus variety 65037 Restorer line was used for Agrobacterium-mediated transformation and R0 plants were grown in the greenhouse.
# Dicamba tolerance was assessed using R0 plants with one copy of transgene with vector backbone or two copies of transgene. Dicamba tolerance was designated as dicamba injury of 20% or less under greenhouse conditions.
# Dicamba tolerance was assessed on R0 plants with a one copy of the transgene. Plants were sprayed in the greenhouse with dicamba (Clarity) at 1 lb ae/acre (2× rate), and dicamba tolerance was determined 14 to 21 days later.
# [2] = system: R1 transgenic cotton plants; experiment: R1 cotton greenhouse dicamba injury; conditions: dicamba 1120 g ai/ha at V4; rated 9 days after treatment; DMO SEQ ID NO:18
# From the text: Ten R1 seeds per event from 10 events for each construct and seed from DP393 cotton was planted to evaluate crop tolerance to post-emergence application of dicamba. Dicamba (Clarity) was applied at the V4 stage at 1120 g ai/ha. Crop injury percent ratings were taken 9 days after the treatment.
# [3] = system: R1 transgenic soybean plants; experiment: R1 soybean greenhouse dicamba injury; conditions: dicamba 1120 g ai/ha at V4; rated 10 days after treatment; DMO SEQ ID NO:18
# From the text: Transgenic soybean plants were generated with two DNA constructs that were identical except for the APG6 CTP. The first DNA construct had APG6 (SEQ ID NO:1) operably linked to DMO (SEQ ID NO:18). The second DNA construct had the optimized APG6 (SEQ ID NO:2) operably linked to DMO (SEQ ID NO:18). Each DNA construct was used to transform A3555 soybean by Agrobacterium mediated transformation methods. Following transformation, R0 transgenic plants containing a single copy of the transgene were identified by PCR assay. Single-copy R0 plants were grown in greenhouse, and R1 seed was harvested. Ten R1 seeds per event for 4 events generated using each of the two DNA constructs and AG3555 seed was planted for evaluation of crop tolerance to post-emergence dicamba treatment under standard greenhouse growth conditions. Dicamba (Clarity) was applied at the V4 stage at 1120 g ai/ha. Crop injury ratings were taken 10 days after the treatment.
# [4] = system: R0 transgenic maize plants; experiment: CTP-PPO herbicide tolerance evaluation in R0 transgenic maize (S-3100); format: in vivo
# Experimental: R0 plants each containing a unique transformation event were sprayed with 40 g ai/ha or 80 g ai/ha of S-3100 at approximately the V5 growth stage and injury ratings were taken 4-7 days after treatment. The number of plants with ≤10% injury (highly tolerant) or ≤20% injury (tolerant) of the total number of sprayed plants was recorded. Plants that were determined to be single-copy events and that passed spray at ≤20% injury were advanced to selfing and outcrossing.
# [5] = system: transgenic single-copy R0 soybean plants; experiment: S-3100 efficacy evaluation in R0 soybean; conditions: PPO H_N90; 20 g ai/ha S-3100 at about V3; 14 days after treatment
# From the text: Transgenic single-copy R0 plants, each representing a unique event, were sprayed in the greenhouse with the herbicide treatment 20 g ai/ha S-3100 applied at approximately the V3 stage. Injury ratings were taken 14 days after treatment as the number that were deemed highly tolerant (≤10% injury) or tolerant (≤20% injury).
# knockout E. coli strain = format: cell-based; conditions: LB medium, acifluorfen 1 mM, flumioxazin 0.5 mM, lactofen 0.5 mM, fomesafen 1 mM, S-3100 100 μM
# [6] = construct configuration 17, PPO H_N40, S-3100 80 g ai/ha
# [7] = construct configuration 17, PPO H_N90, S-3100 40 g ai/ha
# [8] = construct configuration 18, PPO H_N40, S-3100 80 g ai/ha
# [9] = construct configuration 19, PPO H_N40, S-3100 80 g ai/ha
molecule,measurement,setting,value
B1,2X Tolerant events,[1]; dicamba 1 lb ae/acre,7/14
same,4X Tolerant events,[1]; dicamba 2 lb ae/acre,6/18
same,"dicamba % Injury, V4 stage",[2],2.6%
same,"Dicamba Injury, V4 stage",[3],3.6%
same,≤10% injury (percent of plants),[4]; [6],(37.5%)
same,≤10% injury (plants of total sprayed),[4]; [6],42/112
same,≤20% injury (percent of plants),[4]; [6],(58%)
same,≤20% injury (plants of total sprayed),[4]; [6],65/112
same,≤10% injury (percent of plants),[4]; [7],(49.1%)
same,≤10% injury (plants of total sprayed),[4]; [7],55/112
same,≤20% injury (percent of plants),[4]; [7],56.3%)
same,≤20% injury (plants of total sprayed),[4]; [7],63/112
same,≤10% injury (percent of plants),[4]; [8],(40.2%)
same,≤10% injury (plants of total sprayed),[4]; [8],45/112
same,≤20% injury (percent of plants),[4]; [8],(58.9%)
same,≤20% injury (plants of total sprayed),[4]; [8],66/112
same,≤10% injury (percent of plants),[4]; [9],(21.4%)
same,≤10% injury (plants of total sprayed),[4]; [9],12/56
same,≤20% injury (percent of plants),[4]; [9],(41.1%)
same,≤20% injury (plants of total sprayed),[4]; [9],23/56
same,"≤10% injury (events of total, highly tolerant)",[5],3/14
same,≤10% injury (percent of unique events),[5],21.4%
same,"≤20% injury (events of total, tolerant)",[5],8/14
same,≤20% injury (percent of unique events),[5],57.1%
B2,growth of knockout E. coli strain expressing the PPO in the presence of a PPO herbicide,knockout E. coli strain,sensitive
